“And” between values parts separate entries of the source, which are not always exact repeats. Identical values can stand only once.

Broadly, the stoichiometry N is the number of molecules, sites or subunits per partner or assembly.

The target of this assay is Dark (wild type), auto-inhibited monomer (D. melanogaster) (UniProt Q7KLI1). As to the kind of experiment: cryo-EM structure.

“Dark (wild type), auto-inhibited monomer (from UniProt Q7KLI1 1-1440) (natural protein)”: the stoichiometry N is 6 and 8.

The record behind these values is paper PMC10907274.
